The text below walks through data of article PMC4490564, “Molecular snapshots of the Pex1/6 AAA+ complex in action” (Nature Communications, 2015).

What all share (experiment): negative stain EM (single-particle analysis, 3D reconstruction); purified complexes at 40-50 ug/ml, incubated with ATPγS (2.5 mM), ATP (5 mM), ADP (5 mM) or ADP-AlFx, adsorbed on carbon grids, stained with 2% uranyl acetate; threefold symmetry imposed
What all share (settings): both partners purified

Experiment [1] concerns the target T1, Pex6 (wild type, overexpressed in yeast) (yeast, UniProt P33760 1-1030).
T1 construct: Pex6, yeast; full-length PEX6 amplified from genomic DNA, in pRS425GAL or pYES2; also called Pex6 of Δ188Pex1/Pex6 and of Pex1WB/6; source: S. cerevisiae, overexpressed (2% galactose), purified (IgG Sepharose, TEV cleavage, glycerol gradient); not shown: protein A (ProA), C-terminal, cleaved
T1 sequence (looked up): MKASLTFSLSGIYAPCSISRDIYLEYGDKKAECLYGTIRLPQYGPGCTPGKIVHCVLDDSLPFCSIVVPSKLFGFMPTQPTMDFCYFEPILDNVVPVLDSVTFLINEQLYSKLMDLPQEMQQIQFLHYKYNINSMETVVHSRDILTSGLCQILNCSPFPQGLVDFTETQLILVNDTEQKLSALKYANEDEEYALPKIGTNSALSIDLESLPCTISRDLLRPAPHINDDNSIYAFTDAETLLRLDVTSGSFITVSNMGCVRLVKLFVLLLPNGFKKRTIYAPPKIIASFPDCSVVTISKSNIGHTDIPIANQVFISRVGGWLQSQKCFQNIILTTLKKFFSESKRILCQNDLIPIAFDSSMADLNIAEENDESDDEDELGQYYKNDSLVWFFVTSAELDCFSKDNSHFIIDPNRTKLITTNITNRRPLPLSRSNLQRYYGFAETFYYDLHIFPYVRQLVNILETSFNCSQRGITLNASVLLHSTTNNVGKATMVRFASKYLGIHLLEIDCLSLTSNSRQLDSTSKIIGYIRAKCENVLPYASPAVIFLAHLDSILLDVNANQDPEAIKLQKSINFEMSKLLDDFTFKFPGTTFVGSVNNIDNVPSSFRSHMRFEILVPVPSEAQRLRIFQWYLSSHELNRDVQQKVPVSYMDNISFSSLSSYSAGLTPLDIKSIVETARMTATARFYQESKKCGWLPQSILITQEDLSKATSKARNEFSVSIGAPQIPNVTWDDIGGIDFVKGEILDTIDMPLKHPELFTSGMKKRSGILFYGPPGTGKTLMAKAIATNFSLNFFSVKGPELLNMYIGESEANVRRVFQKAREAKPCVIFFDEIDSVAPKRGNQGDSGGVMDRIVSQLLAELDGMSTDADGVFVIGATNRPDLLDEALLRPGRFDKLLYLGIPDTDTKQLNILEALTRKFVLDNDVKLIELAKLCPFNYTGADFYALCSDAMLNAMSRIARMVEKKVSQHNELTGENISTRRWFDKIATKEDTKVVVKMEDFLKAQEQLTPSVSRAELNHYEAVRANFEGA

Experiment [2] addresses T2, Pex1 (wild type, from HisPex1GST after thrombin cleavage) (yeast, UniProt P24004 1-1043).
T2 construct: Pex1, yeast, type II AAA+ ATPase; PEX1 amplified from genomic DNA; 1,043 amino acids (from the range printed for Δ188PEX1); also called Pex1 of Pex1/6; source: E. coli Tuner (DE3), purified together with HisPex6 (Ni-NTA agarose, glutathione agarose, eluted by thrombin cleavage); not shown: GST, C-terminal, cleaved
T2 sequence (looked up): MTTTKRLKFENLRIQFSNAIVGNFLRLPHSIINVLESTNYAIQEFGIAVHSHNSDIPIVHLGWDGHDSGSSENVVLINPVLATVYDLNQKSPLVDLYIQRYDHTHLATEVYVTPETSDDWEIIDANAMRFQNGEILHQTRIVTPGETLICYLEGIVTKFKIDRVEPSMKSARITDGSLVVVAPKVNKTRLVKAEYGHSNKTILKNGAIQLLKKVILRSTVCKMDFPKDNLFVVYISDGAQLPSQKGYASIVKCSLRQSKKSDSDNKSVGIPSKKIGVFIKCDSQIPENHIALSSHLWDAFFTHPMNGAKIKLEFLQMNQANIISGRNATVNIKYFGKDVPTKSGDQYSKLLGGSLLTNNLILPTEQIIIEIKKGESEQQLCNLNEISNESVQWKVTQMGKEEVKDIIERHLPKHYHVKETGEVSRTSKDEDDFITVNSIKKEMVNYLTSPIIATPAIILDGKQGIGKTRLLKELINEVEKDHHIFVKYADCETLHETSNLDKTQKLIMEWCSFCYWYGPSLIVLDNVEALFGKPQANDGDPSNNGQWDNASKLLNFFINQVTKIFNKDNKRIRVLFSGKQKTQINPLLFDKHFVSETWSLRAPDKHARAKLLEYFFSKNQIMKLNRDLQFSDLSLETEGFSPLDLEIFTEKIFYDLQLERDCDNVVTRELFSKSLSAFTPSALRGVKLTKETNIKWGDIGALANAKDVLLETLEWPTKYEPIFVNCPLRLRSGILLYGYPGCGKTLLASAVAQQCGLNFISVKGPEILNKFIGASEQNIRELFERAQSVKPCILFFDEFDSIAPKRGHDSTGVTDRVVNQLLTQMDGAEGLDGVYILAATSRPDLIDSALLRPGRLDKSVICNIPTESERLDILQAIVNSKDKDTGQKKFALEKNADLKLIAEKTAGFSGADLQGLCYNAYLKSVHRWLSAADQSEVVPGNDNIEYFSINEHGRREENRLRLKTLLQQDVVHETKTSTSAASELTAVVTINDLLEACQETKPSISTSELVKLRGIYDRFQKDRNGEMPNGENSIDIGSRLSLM

In experiment [3] the target is T3, Pex1GST (Pex1 with the C-terminal GST kept) (yeast, UniProt P24004 1-1043).
T3 construct: Pex1, yeast; PEX1 cloned into pRSFDuet-cGST (GST with a thrombin cleavage site); also called HisPex1GST; source: E. coli Tuner (DE3), purified; not shown: GST, C-terminal, kept
T3 sequence (looked up): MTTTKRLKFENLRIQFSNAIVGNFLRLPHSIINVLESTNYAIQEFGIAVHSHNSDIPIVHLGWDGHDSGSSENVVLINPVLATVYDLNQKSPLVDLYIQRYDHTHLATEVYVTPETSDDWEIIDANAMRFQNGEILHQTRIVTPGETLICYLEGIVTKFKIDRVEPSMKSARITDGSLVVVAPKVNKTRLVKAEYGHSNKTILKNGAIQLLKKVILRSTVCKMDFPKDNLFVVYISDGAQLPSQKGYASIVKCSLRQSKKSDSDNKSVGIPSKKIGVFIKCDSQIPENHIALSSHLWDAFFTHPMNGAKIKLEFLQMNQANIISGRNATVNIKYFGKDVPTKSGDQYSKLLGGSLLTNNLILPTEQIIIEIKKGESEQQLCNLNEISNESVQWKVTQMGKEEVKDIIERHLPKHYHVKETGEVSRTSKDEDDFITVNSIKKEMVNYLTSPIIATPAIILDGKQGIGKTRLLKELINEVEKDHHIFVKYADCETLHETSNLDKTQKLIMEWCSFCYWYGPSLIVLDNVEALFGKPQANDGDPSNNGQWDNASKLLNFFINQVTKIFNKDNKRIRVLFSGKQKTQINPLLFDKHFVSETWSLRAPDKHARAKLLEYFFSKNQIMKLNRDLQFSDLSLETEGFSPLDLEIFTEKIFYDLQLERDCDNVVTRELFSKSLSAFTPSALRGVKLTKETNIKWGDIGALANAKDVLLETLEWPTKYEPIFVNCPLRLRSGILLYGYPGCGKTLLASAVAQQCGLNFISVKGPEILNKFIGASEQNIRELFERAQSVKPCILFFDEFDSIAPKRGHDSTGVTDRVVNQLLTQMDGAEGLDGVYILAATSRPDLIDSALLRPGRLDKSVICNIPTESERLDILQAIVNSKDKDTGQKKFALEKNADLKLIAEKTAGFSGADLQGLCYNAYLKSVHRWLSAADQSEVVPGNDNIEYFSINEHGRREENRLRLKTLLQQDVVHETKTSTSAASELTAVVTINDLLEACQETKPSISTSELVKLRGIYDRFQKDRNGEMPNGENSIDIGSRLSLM

B1: Δ188Pex1 (N-terminal truncation mutant of Pex1) (domain or fragment, yeast, UniProt P24004 189-1043, looked up)
chain: RLVKAEYGHSNKTILKNGAIQLLKKVILRSTVCKMDFPKDNLFVVYISDGAQLPSQKGYASIVKCSLRQSKKSDSDNKSVGIPSKKIGVFIKCDSQIPENHIALSSHLWDAFFTHPMNGAKIKLEFLQMNQANIISGRNATVNIKYFGKDVPTKSGDQYSKLLGGSLLTNNLILPTEQIIIEIKKGESEQQLCNLNEISNESVQWKVTQMGKEEVKDIIERHLPKHYHVKETGEVSRTSKDEDDFITVNSIKKEMVNYLTSPIIATPAIILDGKQGIGKTRLLKELINEVEKDHHIFVKYADCETLHETSNLDKTQKLIMEWCSFCYWYGPSLIVLDNVEALFGKPQANDGDPSNNGQWDNASKLLNFFINQVTKIFNKDNKRIRVLFSGKQKTQINPLLFDKHFVSETWSLRAPDKHARAKLLEYFFSKNQIMKLNRDLQFSDLSLETEGFSPLDLEIFTEKIFYDLQLERDCDNVVTRELFSKSLSAFTPSALRGVKLTKETNIKWGDIGALANAKDVLLETLEWPTKYEPIFVNCPLRLRSGILLYGYPGCGKTLLASAVAQQCGLNFISVKGPEILNKFIGASEQNIRELFERAQSVKPCILFFDEFDSIAPKRGHDSTGVTDRVVNQLLTQMDGAEGLDGVYILAATSRPDLIDSALLRPGRLDKSVICNIPTESERLDILQAIVNSKDKDTGQKKFALEKNADLKLIAEKTAGFSGADLQGLCYNAYLKSVHRWLSAADQSEVVPGNDNIEYFSINEHGRREENRLRLKTLLQQDVVHETKTSTSAASELTAVVTINDLLEACQETKPSISTSELVKLRGIYDRFQKDRNGEMPNGENSIDIGSRLSLM
notes: Pex1, yeast, gene segment corresponding to amino acids 189-1,043; source: S. cerevisiae, overexpressed (2% galactose), purified (IgG Sepharose, TEV cleavage, glycerol gradient); not shown: protein A (ProA), C-terminal, cleaved
Consider B1, for which the binding result in experiment [1] is recorded as “binds”.

B2: Pex6 (wild type, HisPex6) (natural protein, yeast, UniProt P33760 1-1030, looked up)
chain: MKASLTFSLSGIYAPCSISRDIYLEYGDKKAECLYGTIRLPQYGPGCTPGKIVHCVLDDSLPFCSIVVPSKLFGFMPTQPTMDFCYFEPILDNVVPVLDSVTFLINEQLYSKLMDLPQEMQQIQFLHYKYNINSMETVVHSRDILTSGLCQILNCSPFPQGLVDFTETQLILVNDTEQKLSALKYANEDEEYALPKIGTNSALSIDLESLPCTISRDLLRPAPHINDDNSIYAFTDAETLLRLDVTSGSFITVSNMGCVRLVKLFVLLLPNGFKKRTIYAPPKIIASFPDCSVVTISKSNIGHTDIPIANQVFISRVGGWLQSQKCFQNIILTTLKKFFSESKRILCQNDLIPIAFDSSMADLNIAEENDESDDEDELGQYYKNDSLVWFFVTSAELDCFSKDNSHFIIDPNRTKLITTNITNRRPLPLSRSNLQRYYGFAETFYYDLHIFPYVRQLVNILETSFNCSQRGITLNASVLLHSTTNNVGKATMVRFASKYLGIHLLEIDCLSLTSNSRQLDSTSKIIGYIRAKCENVLPYASPAVIFLAHLDSILLDVNANQDPEAIKLQKSINFEMSKLLDDFTFKFPGTTFVGSVNNIDNVPSSFRSHMRFEILVPVPSEAQRLRIFQWYLSSHELNRDVQQKVPVSYMDNISFSSLSSYSAGLTPLDIKSIVETARMTATARFYQESKKCGWLPQSILITQEDLSKATSKARNEFSVSIGAPQIPNVTWDDIGGIDFVKGEILDTIDMPLKHPELFTSGMKKRSGILFYGPPGTGKTLMAKAIATNFSLNFFSVKGPELLNMYIGESEANVRRVFQKAREAKPCVIFFDEIDSVAPKRGNQGDSGGVMDRIVSQLLAELDGMSTDADGVFVIGATNRPDLLDEALLRPGRFDKLLYLGIPDTDTKQLNILEALTRKFVLDNDVKLIELAKLCPFNYTGADFYALCSDAMLNAMSRIARMVEKKVSQHNELTGENISTRRWFDKIATKEDTKVVVKMEDFLKAQEQLTPSVSRAELNHYEAVRANFEGA
notes: Pex6, yeast, type II AAA+ ATPase; PEX6 amplified from genomic DNA; also called Pex6 of Pex1/6
Turning to B2, the binding result in experiment [2] and in experiment [3] was “binds” each time.
